In the RNAGym collection of RNA variant scans (doi:10.1101/gr.219683.116):

B1: mRNA-splicing (parent)
chain: AGUUGCUGCUGGGAGCUCCAGCACAGUGAAAUGGACAGAAGGGCAGAGCAA

Variants of: B1
Assay: exon inclusion enrichment index; higher = more inclusion; WT1 exon 5 minigene, HEK293

| Variant | exon inclusion enrichment index |
| --- | --- |
| ACAUGCUGCUGGGAGCUCCAGCACAGUGAAAUGGACAGAAGGGCAGAGCAA [G2C U3A] | 0.0779 |
| AGUUGGAGAAGGGAGCUCCAGCACAGUGAAAUGGACAGAAGGGCAGAGCAA [C6G U7A C9A U10A] | 0.321 |
| AGUUCUUCUUAGGAGCUCCAGCACAGUGAAAUGGACAGAAGGGCAGAGCAA [G5C C6U G8C C9U G11A] | 0.125 |
| AGUUAUAUAUGGGAGCUCCAGCACAGUGAAAUGGACAGAAGGGCUCAGCAA [G5A C6U U7A G8U C9A A45U G46C] | 0.0684 |
| AGUUAUAUAUGGGAGCUCCAGCACAGUGAAUCGGACAGAAGGGCAGAGCAA [G5A C6U U7A G8U C9A A31U U32C] | 0.168 |
| AGUUCACACAACGAGCUCCAGCACAGUGAAAUGGACAGAAGGGCAGAGCAA [G5C C6A U7C G8A U10A G11A G12C] | 0.495 |
| AGUUAUAUAGUGGAGCUCCAGCACAGUGAAAUGGACAGAAGGGCAGAGCAA [G5A C6U U7A G8U C9A U10G G11U] | 0.014 |
| AGUUCACACAGUUAGCUCCAGCACAGUGAAAUGGACAGAAGGGCAGAGCAA [G5C C6A U7C G8A U10A G12U G13U] | 0.00142 |
| AGUCUACACAGGGAGCUCCAGCACAGUGAAAUGGACAGAAGGGCAGAGCAA [U4C G5U C6A U7C G8A U10A] | 0.501 |
| AGUUUCUUUUGGGAGCUCCAGCACAGCUAAAUGGACAGAAGGGCAGAGCAA [G5U G8U C9U U27C G28U] | 0.0729 |
| AGUUCUUCUCGAGAGCUCCAGCACAGUGAAAUGGACAGAAGGGCAGAGCAA [G5C C6U G8C C9U U10C G12A] | 0.889 |
| AGUUCGCGCCGGGAGCUCCAGCACAGUGAAAUGGACGGAAGGGCAGAGCAA [G5C C6G U7C U10C A37G] | 4.39 |
| AGUUGUUCUCGGGAGCUCCAGCACAGUGAAAUGGACAGAAGGGCAGAGCAA [C6U G8C C9U U10C] | 1.11 |
| AGUUCACACAGGGAGCUCCAGCACAGCUAAAUGGACAGAAGGGCAGAGCAA [G5C C6A U7C G8A U10A U27C G28U] | 0.0768 |
| AGUGUAAGAAGGGAGCUCCAGCACAGUGAAAUGGACAGAAGGGCAGAGCAA [U4G G5U C6A U7A C9A U10A] | 0.0439 |
| AGUAGGCGCCGGGAGCUCCAGCACAGUGAAAUGGACAGAAGGGCAGAGCAA [U4A C6G U7C U10C] | 0.262 |
| AGUUCUUCUCGGGAGCUCCAGCACAGUGAAAUGGACAGAAGGGCAGCUCAA [G5C C6U G8C C9U U10C A47C G48U] | 1.77 |
| AGUUUCUUUGUGGAGCUCCAGCACAGUGAAAUGGACAGAAGGGCAGAGCAA [G5U G8U C9U U10G G11U] | 0.498 |
| AGUUGAAGAAGGGAGCUCCAGCACAGUGAAAUGGACUCAAGGGCAGAGCAA [C6A U7A C9A U10A A37U G38C] | 0.667 |
| ACCUAUAUAUGGGAGCUCCAGCACAGUGAAAUGGACAGAAGGGCAGAGCAA [G2C U3C G5A C6U U7A G8U C9A] | 0.0956 |
| AGUUCGCGCCUCGAGCUCCAGCACAGUGAAAUGGACAGAAGGGCAGAGCAA [G5C C6G U7C U10C G11U G12C] | 1.54 |
| AGUUUCUUUUGGGAGCUCCAGCACAGUGAAAUGGACAGAAGGGCAUGGCAA [G5U G8U C9U G46U A47G] | 0.0739 |
| AGUUAGGGAUGGGAGCUCAUGCACAGUGAAAUGGACAGAAGGGCAGAGCAA [G5A C6G U7G C9A C19A A20U] | 0.00128 |
| AGUUCGCGCCGGGAGCUCCAGCACAGUGAAAGUGACAGAAGGGCAGAGCAA [G5C C6G U7C U10C U32G G33U] | 1.88 |
| AGUUGCUGCUGGGAGCCACAGCACAGUGAAAUGGACAGAAGGGCAGAGCAA [U17C C18A] | 1.29 |
| AGUUGAAGAAGGGAGCUCCAGCACAGUGAAAUGGACAGAAGGGCAUGGCAA [C6A U7A C9A U10A G46U A47G] | 0.587 |

| Variant | exon inclusion enrichment index |
| --- | --- |
| AGUUCGCGAAGGGAGCUCCAGCACAGUGAAAUGGACAGAAGGGCAGAGCAA [G5C C6G U7C C9A U10A] | 1.93 |
| AGUUGAAGAAGGGAGCUCCAGCUGAGUGAAAUGGACAGAAGGGCAGAGCAA [C6A U7A C9A U10A A23U C24G] | 0.918 |
| AGUUAUAUAUGACAGCUCCAGCACAGUGAAAUGGACAGAAGGGCAGAGCAA [G5A C6U U7A G8U C9A G12A G13C] | 0.0112 |
| AGUUCUUCUCGGGAGCUCCAGCACUGUGAAAUGGACAGAAGGGCAGAGCAA [G5C C6U G8C C9U U10C A25U] | 2.6 |
| AGUUUCUUUUGGGAGCUCCAGCACAGUGAAAUGGACAGAAGGGCAGCCCAA [G5U G8U C9U A47C G48C] | 0.139 |
| AGUUCACACAGGGAGCUCCAGCACAGUGAAAUGGACAGAUAGGCAGAGCAA [G5C C6A U7C G8A U10A A40U G41A] | 0.00421 |
| AGUUGACGACGCCAGCUCCAGCACAGUGAAAUGGACAGAAGGGCAGAGCAA [C6A U7C C9A U10C G12C G13C] | 1.72 |
| AGUUGAAGAAGGGAGCUCCAGCACAGUGAAAUGGACAGAAGGGGGGAGCAA [C6A U7A C9A U10A C44G A45G] | 0.124 |
| AGUUCGCGCCGGGAGCUCCAGCAAAGUGAAAUGGACAGAAGGGCAGAGCAA [G5C C6G U7C U10C C24A] | 3.28 |
| AGUUAGGGAUGGGAGCUCCAGUGCAGUGAAAUGGACAGAAGGGCAGAGCAA [G5A C6G U7G C9A C22U A23G] | 0.00203 |
| AGUUAUAUAUGGGAGCUCCAGCACAGGUAAAUGGACAGAAGGGCAGAGCAA [G5A C6U U7A G8U C9A U27G G28U] | 0.00125 |
| AGUUCGCGCCGGGAGCUCCACCACAGUGAAAUGGACAGAAGGGCAGAGCAA [G5C C6G U7C U10C G21C] | 3.41 |
| AGUUAUAUAUGGGAGCUCCAGCACAGUGAAAUCUACAGAAGGGCAGAGCAA [G5A C6U U7A G8U C9A G33C G34U] | 0.0325 |
| AGUUGCUCUCGGGAGCUCCAGCACAGUGAAAUGGACAGAAGGGCAGAGCAA [G8C C9U U10C] | 0.579 |
| AGUUCUUCUCGGGAGCUCCAGCACAGUGAAAUCAACAGAAGGGCAGAGCAA [G5C C6U G8C C9U U10C G33C G34A] | 1.24 |
| AGUUAUAUAUGGGAGCUCCAGCACAGUGAAAUGGACAAAAGGGCAGAGCAA [G5A C6U U7A G8U C9A G38A] | 0.0251 |
| AGUUGAAGAAGGGAGCAGCAGCACAGUGAAAUGGACAGAAGGGCAGAGCAA [C6A U7A C9A U10A U17A C18G] | 0.498 |
| AGUUCUUCUCGGGAGAUCCAGCACAGUGAAAUGGACAGAAGGGCAGAGCAA [G5C C6U G8C C9U U10C C16A] | 2.53 |
| AGUGCAAGAAGGGAGCUCCAGCACAGUGAAAUGGACAGAAGGGCAGAGCAA [U4G G5C C6A U7A C9A U10A] | 0.624 |
| AGUUCUUCUCGGGAGCUCCAGCACAGCCAAAUGGACAGAAGGGCAGAGCAA [G5C C6U G8C C9U U10C U27C G28C] | 2.52 |
| AGUUAGGGAUGGGAGCUCCAGCACCUUGAAAUGGACAGAAGGGCAGAGCAA [G5A C6G U7G C9A A25C G26U] | 0.00184 |
| AGUUGACGACUGGAGCUCCAGCACAGUGAAAUGGACAGAAGGGCAGAGCAA [C6A U7C C9A U10C G11U] | 3.07 |
| AGUUGACGACGGGAGCUCCAGCACAGUGUGAUGGACAGAAGGGCAGAGCAA [C6A U7C C9A U10C A29U A30G] | 3.55 |
| AGUUGACGACGGGAGAACCAGCACAGUGAAAUGGACAGAAGGGCAGAGCAA [C6A U7C C9A U10C C16A U17A] | 3.43 |
| AGUAGUAUAUGGGAGCUCCAGCACAGUGAAAUGGACAGAAGGGCAGAGCAA [U4A C6U U7A G8U C9A] | 0.00525 |
